Results on 34 sequences are retold here after the NTF2 design screens of Basanta et al. (2020).

This data set in a line: protease stability score; higher = more stable; yeast display proteolysis, trypsin and chymotrypsin.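 Also: log10 excess protease needed over predicted unfolded state with 0 meaning unfolded.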

In turn, “DERNERVFHHFVEAISFNDPQQARRNADKDVKFDVGEKVLHGREEWDKQMEHNKKHMRQDMRVKEVSTSGDKVTARVEQEHNHNGKPSTRDVKMSVEINNGKIKSFRLTTVS” showed a protease stability score of -0.129.

For “DERNIERARKWWEALQENNPDQARKLMDKDVTFTYGDKTYHGREDIAKDIHRRLENMRVEIKSMTLEDHNGRVDAQVDLVVDVNGQPRQVTLDAKVNVENGRVKEFNVQFDEQLRHDIQK”, the protease stability score came out at 0.132.

For “DERNKKVLRQFMHAQMRGNPEKAKKLADPNAKFQVGDKTVHGMDEWVRQLDRKKKQIRFEVRVDSVRVHGDNVTMHVEYRATYNGKPYSDKVDYSARLHNGKITKLSAEMDPEFQRELDT”, the protease stability score came out at 0.296.

Regarding “DERNKRRFDEFERARKTGDPDRMKELADPNAKLDVGNKTITGMDEIVRQLKHEQDKIEIDIKFDRITVQGNNLRAEYHEEYNVNGKPFHDKVVLEVQFDNGKIRELKLRVDPEKQDERRT”, the protease stability score is -0.003.

“DERNLHVANEFWKVLTDGDPRRLMELVDPNAKIQYGDKTITGREEIRKKAEKDTKKSRFEVQVQDIRVTGDTANIHAVFNEDHNGQPSQDFYVVTMAMNGDKIRFMIQRKSK”: the protease stability score came out at 0.483.

As for “DERNLRVVKHFWHAVRTGDPEEVKRQADKHVRVRIGDKHIEGRETLAHEVREEKNQLENDIQIRDIKVQGDRVHMRVVVVFNIDGRPQSVQITVEAKAHNGKLQSMSQEVPEEVLHEIEK”, the protease stability score came to 0.021.

Sequence “DERNNEFAKHFIEVLNQGDWKRLNEMLDPNVKVEIGDTTIHGRENFSRNVKQDLDHLRQEFHITSMDASGNKVEVRADVINRDNGKPREFKMKMEIRFHNGRVKEIKLDHDG” gave a protease stability score of 1.53.

As to “DERNNKQADQFLRDMEKNDEHKLRKLADENVKFKIGDKVFRGWHDAVTEIATRIREMRVNVHRYDVKTHNGRVNLEIHQTAEYNGQPLNFSYIVIMEYQNGRLVRVNIRVSEEELKTMTQ”, the protease stability score amounted to 0.475.

“DERNQKEVADKMYTAFRHGDPRKINKLADKDVTARYGDKVVSGRDDMVRQIDEIRKSIDHMSITSIEVHNGKADATLRFVVNGRDLQMKLVIVIHNGKVKHLSVQFRDDEQKKVLER” displayed a protease stability score of -0.174.

“DERNQRNLEKMLKAQERGNPDLLEELVDKNVKIEVGDKSVHGREELHRQQDRRRKQATLRYDDLRMKVSGNKVRVDMKFQVNHDGKPEKATADATYEFDNGKLKHVSVRVRQ” yielded a protease stability score of -0.06.

As for “DERNREIVEEYFKAIKQGDEDRYKQMVDPNVHVEVGDRNYHGREHQARWMHRLRKHMRLVFNIRSIDVSGDKVKVKLDYEEEHNGEPRTNKMTVEFKFHNGKILKIKIQTRQ”, the protease stability score was found to be 2.08.

“DERNSELLKKVQEAWDHGDPRKLDEQMDPNAKVNVGDKNLHGKEQLRNTLEEDTRHSRVRVDYDSVTDHNGRVRASATFQDVINGKPVRDTFDFVAEVNNGKMKMLKVRVPEDNKRKLKR” registered a protease stability score of 0.022.

For the sequence “DERQENNARKFFTAYLKGDEHKLTELMRDDVRLKIGDKEIHGRETALKTIHTLRRRQRIHIQVDNIEVDENHVEVHAKIEWEHNGQPDSQKVRIDIKFHNGRINYLQMDLRG”, the protease stability score was 1.59.

Consider “DERQIEQLKRYLEALKTGDKEKIKELLDPNARIVYGDKEVKGRENIAEQVKKRKDDSRYDWTSVDVKTSGDKLVMTARKVNNRNGRPHERQFTADIKIKNGRMQHLQFDSTG”, for which the protease stability score is -0.323.

“DERQLDLLRQFLHAVQHGDEDRLKELADPNAKFTVGDKTIHGMNTFARTVKRRRDQARFQYNVKSMEADGDKMEVRIQLHVDVNGRPINVEFTARAHVDGDKLKSLELRIPEEVLKKQES”: the protease stability score amounted to 0.037.

“DERQLKILVRILNAIHEGDPDTVKQLVDPNARVVIGDKVLHGMDEVRDTLHKWQEEQEVDLKDYRDNVHNGKADITAKAKVNQDGTPDHIRFKATAEFRNGRAKEVRINHDK”: the protease stability score is 1.09.

For “DERQNERFETLVKAIEEGDEDEAREQMDPNVRIEVGDKVIHGMDEFADTVRRTREELRVEFKIKRLRIKNGQVDVEMHVTFDHNGEPETARMVIKVNAHNGKIKNVVMRIHK”, the protease stability score came to 1.6.

In the case of “DERQNKEAFQRVAENITTNNPDEIMKQADPNVRFKYGDKEVHGRENVRDIVKEFNERVDRVQIDHVNVQGDKVNANATADVNGRKHRFQIHAVIKNGRLKFMQIHDQ”, the protease stability score came out at 1.09.

As to “DERQNSQLHRQIEQAKQGDEEKVRQQMDENARARYGDKEVHGRTELARQQVRQWNEAKIDIEFKRVSAHENEIRVNVVMQFDVDGRPNRSTWTFKVRFHNGTIKQINAEIDPDEWDTLLK”, the protease stability score came to 0.506.

In turn, “DERQRSRAEEFMKNYQTGNEQNLDKLFDKNAKVHVGDKVVHGREQIREQNRREKEHLRFKIRHMDVEVRNGHVSVQVRMEREHNGHPQTVSVQFRNEQHNGQIKRFEREEQQ” came in with a protease stability score of 0.258.

“DERQVERIDRHLKALEHGDEKTLVEMIDPNAHFSVGDKEIHGREEYAHQQRRRVKESRFQVTIKDVQVNGDTVHIKYTSDQKHNGQPREDSNVMVMDATGERIESAKVTKDQ” displayed a protease stability score of -0.418.

“DERQVKEIALEAAKAYISGNKEKLKKLGKEDVELEAGSHKYKGVEQMATVVEQFKKYGVELQITDVKVDGDKVKMRIQVHAGGTTWEFTMEIQVDGGRVDKMTIHLSEEMVKRIQKG” came in with a protease stability score of 1.02.

“DERRLEEVARHIRRGDKKHLNRLADPNAQLQYGNQRYTGRERVQTFWRQMITRADHLRVQSVTIHNGRIDAKFEMRVNGNKVEYRLKVQIHNGKAQNVQVNYRDEEDEKRMEENLG” displayed a protease stability score of 0.183.

“DERRLEQQQREYLKVLNTGNPDEMNELFDENASWQVGDKRYTGREEIERKLRELHNRVDQVRLDSYEVEPGRIKIDFQLDVNGVKVRITIILHYHNGRLQEVKMDVTDPEQWKHMQK”: the protease stability score was -0.011.

As to “DERRQAQQFADTFDDNMQENNEEEVVKMADPNAELTVGDKEYHGREEIQKWIKQIHDKVDHLEIHIKSVDVRNGRVTIRARVRVEHNGRQKTMSVDIKAEQKNGRFIIKTMTMG”, the protease stability score was determined as 1.47.

On to “DERRQQEVLKRFIDALQTGDPQKLKELADPNAQVNVGDKTFHGRDELVRQVEDEKRRIDEFHVVSIENHGDHVTARFRKESDGHQTEFVMKAYVHNGKVQSVKIDSS”, for which the protease stability score came out at 0.201.

As to “DERTLEQLLQDFINNMQTGDHQSLKDLLDENARVNIGDKTLSGRERVTTALKRLMRRVDHIQVDHYEVTNGEMNIDMQLEVNGVRVKVEVIIEVHNGKAKFIEFRVRNEEQWERVEG”, the protease stability score is 1.84.

In the case of “DERTNTEMLKRLQHALQKNDPNEVRKLFDKDVQVQIGDKTLSGREQLLTEAEQRRKKIDDIEVTDMKSNPDHAVLSVVIKHNGRNRKVIYYIRWSNGKVRKVEERES”, the protease stability score came out at 1.5.

With “DERVADQFVRALRTNDEEQLVRLMDEDAKMRVGEKEIHGRESVQTYLRRFAQQADHVDIHHVHIQGDKVSIDAVVEFNGKRVRFSMQFTVEGEKVKDVTIEARDEDDKRKLDEIFR”, the protease stability score amounted to 1.79.

Take “DERVAHEFVKAINKGDPDRLNELADKNARAEVGDKTFHGREKLEQMWKQWKKMVDHIHIRRVRVHNGHIHVDYVVNIDGQNNQLEIKAVVENGKVQEVKIQVTDEQNQDKLRKKMD”: the protease stability score came to 1.25.

Take “DERVHEAFRRFVHALKEGDPDKIRENADEDVRIEVGDTEIQGRETLADRVEEEMKDMQIEYQIDSIKVHGNKAKVNMRVVKNHNGKPETRKFTVHVTFDNGKVKNVHVQDDR”: the protease stability score came out at 1.3.

“DERVIQEIRKMFNTNNFDSIAKNADKDATASIGNKHVHGKDNVKKLLDQFSRQIDHIQIDSVHVQGEKFVAQMKVNINGRERTAEMRMEVHNGKIQRISITFTDPSAQQTIKERME”: the protease stability score came out at 0.942.

With “DERVKQQVETLERAVKHNDEDRLKELMDPNVRVRVGDRTVEGREEIAKQLVRTNNESRIEQKIDRVDVRGDKVHIDFQRREHHDGKPDSAKFNVLVKASNGRISEMEVHTNQ”, the protease stability score is -0.248.

Turning to “DERVKRLVEQWFRAIEHGDPDQERKYFDPNARVEIGDRELNGREEIAHDLKRRHDEMHLHLKSVTIRVEGDHAEVNVRFQQDHNGKPEQKVQHVVLHFRGDYVRKMEVRDTK”, the protease stability score stood at 1.15.
